B1: FLNCd24 (domain 24 of filamin C, residues 2630-2724), wild type (domain or fragment)
chain: GSKFSSDASKVVTRGPGLSQAFVGQKNSFTVDCSKAGTNMMMVGVHGPKTPCEEVYVKHMGNRVYNVTYTVKEKGDYILIVKWGDESVPGSPFKVKV
B2: FLNCd24 Y2683E (phospho-mimic, residues 2630-2724) (domain or fragment)
chain: GSKFSSDASKVVTRGPGLSQAFVGQKNSFTVDCSKAGTNMMMVGVHGPKTPCEEVEVKHMGNRVYNVTYTVKEKGDYILIVKWGDESVPGSPFKVKV
B3: FLNCd24 T2677D (phospho-mimic, residues 2630-2724) (domain or fragment)
chain: GSKFSSDASKVVTRGPGLSQAFVGQKNSFTVDCSKAGTNMMMVGVHGPKDPCEEVYVKHMGNRVYNVTYTVKEKGDYILIVKWGDESVPGSPFKVKV

Target: HSPB7ACD (α-crystallin domain, residues 78-162 of isoform 2) (human)
Assay: native MS

Row | Binder | Kd
1 | B1 | 3.9 nM
2 | B2 | 2.2 nM
3 | B3 | 14.1 nM
